According to US5827734:

Target: murine MBP::ob fusion protein (+Gln), construct pCZR90 (mouse)

Factor Xa cleavage of the MBP::ob fusion protein: 9%
Substance: Bovine Factor Xa (from UniProt P00743) (enzyme)
